# From patent US20030092613A1, “Alpha7 nicotinic receptor peptides as ligands for beta amyloid peptides” (priority 2000, published 2003)
# T1: 125I-α-bungarotoxin, P60615
# T1 chain: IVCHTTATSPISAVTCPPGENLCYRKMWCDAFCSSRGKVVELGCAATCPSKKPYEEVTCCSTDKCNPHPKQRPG
# Key:
# [1] = biological target: β-amyloid1-42, P05067; test: cell-based or functional assay
# [2] = biological target: T1, 125I-α-bungarotoxin, P60615
Binder,ACh rel % Inh @ 100 µM [1],Inh ACh rel IC50 [1],IC50 [2]
Ac-SERFYACCKEP-NH2 (cysteine pairing not given here),14%,> 10 µM,9.5 µM
Ac-SERFYEACKEP-NH2,19%,> 10 µM,> 100 µM
Ac-SERFYECCKEA-NH2 (cysteine pairing not given here),59%,< 10 µM,> 100 µM
Ac-SARFYECCKEP-NH2 (cysteine pairing not given here),13%,> 10 µM,8.4 µM
Ac-AERFYECCKEP-NH2 (cysteine pairing not given here),15%,> 10 µM,15 µM
Ac-IPGKRSERFYECCKEPYPDV-NH2 (cysteine pairing not given here),73%,0.626 µM,0.2 µM
Ac-IPGKRSERFYECCKEPYP-NH2 (cysteine pairing not given here),79%,0.71 µM,
Ac-SERFYECCKAP-NH2 (cysteine pairing not given here),75%,0.426 µM,> 100 µM
Ac-SERAYECCKEP-NH2 (cysteine pairing not given here),14%,> 10 µM,> 100 µM
Ac-SERFYECCKEP-NH2 (cysteine pairing not given here),89%,0.125 µM,19 µM
Ac-SERFYECCAEP-NH2 (cysteine pairing not given here),19%,> 10 µM,1.3 µM
Ac-SERFAECCKEP-NH2 (cysteine pairing not given here),18%,> 10 µM,> 100 µM
Ac-GIPGKRSERFYECCK-NH2 (cysteine pairing not given here),73%,1.21 µM,
Ac-SERFYECAKEP-NH2,85%,0.165 µM,> 100 µM
Ac-SEAFYECCKEP-NH2 (cysteine pairing not given here),70%,0.277 µM,9.6 µM
